Test results published in PMC7217052, “Rapid Biophysical Characterization and NMR Spectroscopy Structural Analysis of Small Proteins from Bacteria and Archaea” (Chembiochem, 2020).

Biological target: the molecule itself
Test: solution-state NMR structure; 5 mM protein, 50 mM sodium phosphate buffer pH 7.5, 100 mM NaCl, 298 K; best 20 structures shown as a symmetrical dimer

B1: SP-22 small protein from Haloferax volcanii (natural protein)
chain: MNKAHFEVFVDAADKYRWRLVHDNGNILADSGEGYASKQKAKQGIESVKRNAPDADVIEA
notes: source: heterologously expressed in E. coli, purified (purity above 95 %)
- stoichiometry N: 2
